Laboratory results taken from patent publication US20240358762A1 (UNIVERSITY OF PITTSBURGH OF THE COMMONWEALTH SYSTEM OF …, published 2024).

Target: T1, human PRTG polypeptide (human, UniProt Q2VWP7 36-952, limits assumed)
T1 construct: also called protogenin
T1 sequence (looked up): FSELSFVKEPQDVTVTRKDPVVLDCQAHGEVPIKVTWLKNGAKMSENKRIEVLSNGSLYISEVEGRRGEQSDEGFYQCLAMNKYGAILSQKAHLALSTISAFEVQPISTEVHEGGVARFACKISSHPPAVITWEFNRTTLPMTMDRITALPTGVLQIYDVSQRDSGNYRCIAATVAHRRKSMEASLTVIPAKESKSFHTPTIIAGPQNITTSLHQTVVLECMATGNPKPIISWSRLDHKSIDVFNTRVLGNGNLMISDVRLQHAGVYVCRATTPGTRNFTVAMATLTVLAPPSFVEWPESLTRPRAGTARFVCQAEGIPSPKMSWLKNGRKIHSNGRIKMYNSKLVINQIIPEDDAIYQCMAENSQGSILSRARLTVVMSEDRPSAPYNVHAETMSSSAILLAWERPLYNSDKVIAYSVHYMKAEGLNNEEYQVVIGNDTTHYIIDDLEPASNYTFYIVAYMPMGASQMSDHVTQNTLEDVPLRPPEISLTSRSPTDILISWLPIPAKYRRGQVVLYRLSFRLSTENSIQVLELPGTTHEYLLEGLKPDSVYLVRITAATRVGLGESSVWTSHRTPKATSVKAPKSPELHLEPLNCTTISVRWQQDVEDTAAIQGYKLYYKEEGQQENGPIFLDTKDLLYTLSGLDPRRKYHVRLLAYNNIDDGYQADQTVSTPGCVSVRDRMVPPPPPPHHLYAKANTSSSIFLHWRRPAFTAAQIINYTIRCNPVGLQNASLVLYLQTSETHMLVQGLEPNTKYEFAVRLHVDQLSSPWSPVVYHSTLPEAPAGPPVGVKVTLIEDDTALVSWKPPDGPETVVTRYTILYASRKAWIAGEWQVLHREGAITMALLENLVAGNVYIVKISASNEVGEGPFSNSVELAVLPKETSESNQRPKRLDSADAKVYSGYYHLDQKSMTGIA
Experiment: ELISA and SPR (Blitz) as stated; which method gave the EC50 is not said
Protocol: Binding affinity and specificity to a human PRTG polypeptide were tested using an ELISA and SPR (Blitz). […] Clone #1 was determined to bind to the human PRTG fibronectin type-III 1 domain; clone #2 was determined to bind to the human PRTG fibronectin type-III 3 domain; and clones #3, #4, #5, #6, #7, and #8 were determined to bind to the human PRTG fibronectin type-III 5 domain. Clone #1 binding to the human PRTG fibronectin type-III 1 domain was determined by ELISA. Clone #2 binding was based on the panning being performed using a PRTG fibronectin type-III 3 domain; and clones #3, #4, #5, #6, #7, and #8 binding was based on the panning being performed using a PRTG fibronectin type-III 5 domain.

B1: VH domain Clone #6 (other)
VH: EVQLVESGGGLVQPGGSLRLSCAASGFTFSNYGMSWVRQAPGQRLEWIGWIDTKTGNPRYGQGFTGRFTISRDNSKNTLYLQMNSLRAEDTATYYCVSTVPNGVEYFQHWGQGTLVTVSS
notes: also called #6 (VH domain)
EC50: 6.25 nM

B2: VH domain Clone #2 (other)
VH: EVQLVESGGGLVQPGGSLRLSCKGSGFTFSNFAMNWVRQAPGKGLEWVSAISGSGGSTYYADSVKGRFTISRDNSKNTLYLQMNSLRAEDTALYYCARGPDYYGSGSHGWFDPWGQGTLVTVSS
notes: also called #2 (VH domain)
EC50: 30 nM

B3: VH domain Clone #3 (other)
VH: EVQLVESGGGLVQPGGSLRLSCAASYFDFDSYEMSWVRQAPGKALEWLGRIYTSGTTNYNPSLKSRVTISRDNSKNTLYLQMNSLRAEDTATYYCAMTGPYYDSSGYYPARHAEYFQHWGQGTLVTVSS
notes: also called #3 (VH domain)
EC50: 0.75 nM

B4: VH domain Clone #4 (other)
VH: EVQLVESGGGLVQPGGSLRLSCAASGSAFGSHWMHWVRQAPGKGLEWVSSISSGGSSIYYADSVKGRFTISRDNSKNTLYLQMNSLRAEDTAVYYCARVRRDDDSNYRPFDVWGQGTMVTVSS
notes: also called #4 (VH domain)
EC50: 0.9 nM

B5: VH domain Clone #8 (other)
VH: EVQLVESGGGLVQPGGSLRLSCKGSGFTFSNYWMHWVRQAPGKGLEWVSAISGSGGSTYYADSVKGRFTISRDNSKNTLYLQMNSLRAEDTATYYCATLCRGDSCYSPFDPWGQGTLVTVSSS
notes: also called #8 (VH domain)
EC50: 0.81 nM

B6: VH domain Clone #7 (other)
VH: EVQLVESGGGLVQPGGSLRLSCAASGFTFSNAWMSWVRQAPGKGLEWIGRIYSSGSTNYNPSLKSRVTISRDNSKNTLYLQMNSLRAEDTALYYCASTYRSSSGEYFQHWGQGTLVTVSSS
notes: also called #7 (VH domain)
EC50: 0.29 nM

B7: VH domain Clone #1 (other)
VH: EVQLVESGGGLVQPGGSLRLSCKASGFTVSSNYMHWVRQAPGKGLEWIGGINHSGRTNYKSSLKSRVTISRDNSKNTLYLQMNSLRAEDTAVYYCARLPPSRDGYNYADYWGQGTLVTVSS
notes: also called #1 (VH domain)
EC50: 2.8 nM

B8: VH domain Clone #5 (other)
VH: EVQLVESGGGLVQPGGSLRLSCKGSGFNFGDYAMHWVRQAPGKALEWIGYIYNTGSTKYNPSLKSLVTISRDNSKNTLYLQMNSLRAEDTATYYCVSTVTNGVEYFQHWGQGTLVTVSS
notes: also called #5 (VH domain)
EC50: 1.35 nM
